The results in this text go back to US20120064078A1.

For the assay, the target named is intracellular Hsp90α (human) (human) (UniProt P07900). The experiment in a line: cell-based or functional assay.

With “human PP5 in MCF-7 cells (overexpressed from pcDNA3.1/Myc-His(-) or endogenous, knocked down by siRNA) (from UniProt P53041 2-499)”, the Thr90 phosphorylated Hsp90α (pT90-Hsp90α) level in MCF-7 cells on overexpression of human PP5 (fold of control) turned out to be 0.55 and the Thr90 phosphorylated Hsp90α (pT90-Hsp90α) level in MCF-7 cells on siRNA knock-down of human PP5 (fold of control) was found to be 1.58.
